# According to publication PMC6347470 (Immunity, 2018):
# B1: STING (natural protein, mouse (endogenous in BMDMs), UniProt Q3TBT3 1-378, looked up)
# chain: MPYSNLHPAIPRPRGHRSKYVALIFLVASLMILWVAKDPPNHTLKYLALHLASHELGLLLKNLCCLAEELCHVQSRYQGSYWKAVRACLGCPIHCMAMILLSSYFYFLQNTADIYLSWMFGLLVLYKSLSMLLGLQSLTPAEVSAVCEEKKLNVAHGLAWSYYIGYLRLILPGLQARIRMFNQLHNNMLSGAGSRRLYILFPLDCGVPDNLSVVDPNIRFRDMLPQQNIDRAGIKNRVYSNSVYEILENGQPAGVCILEYATPLQTLFAMSQDAKAGFSREDRLEQAKLFCRTLEEILEDVPESRNNCRLIVYQEPTDGNSFSLSQEVLRHIRQEEKEEVTMNAPMTSVAPPPSVLSQEPRLLISGMDQPLPLRTDLI
# Target: the molecule itself
# Assay: nonreducing PAGE and immunoblotting
protein,measurement,value
B1,stoichiometry N,2
